B3: Gal4-HIF1α(498-603) (other)
chain: MKLLSSIEQACDICRLKKLKCSKEKPKCAKCLKNNWECRYSPKTKRSPLTRAHLTEVESRLERLEQLFLLIFPREDLDMILKMDSLQDIKALLTGLFVQDNVNKDAVTDRLASVETDMPLTLRQHRISATSSSEESSNKGQRQLTVSTPSPSDGSTRQSSPEPNSPSEYCFYVDSDMVNEFKLELVEKLFAEDTEAKNPFSTQDTDLDLEMLAPYIPMDDDFQLRSFDQLSPLESSSASPESASPQSTVTVFQ
notes: also called Gal4-C-ODD; C-ODD

Legend:
[1] = biological target: T1, VHL protein (endogenous, in Hep3B / 293 cell extracts) (UniProt P40337 1-213, limits assumed); assay: cell-based or functional assay
[2] = biological target: T2, VHL protein, HA-tagged, in vitro translated from p(HA)VHL (UniProt P40337 1-213); assay: in vitro co-immunoprecipitation with anti-VHL, 35S-labeled Gal4 fusion
T2 construct: not shown: HA tag

V5-tagged PHD1/HPH3 = biological target: T3, V5-tagged PHD1/HPH3 (human, UniProt Q96KS0 1-407, limits assumed); assay: co-immunoprecipitation with anti-Gal4, Western blot with anti-V5, 293 cells with Cbz-LLL
T3 construct: V5/His-tagged expression plasmid; not shown: V5/His tag

[3] = biological target: T1, VHL protein (endogenous, in Hep3B / 293 …); assay: EMSA super-shift with anti-VHL, transfected 293 cells
Gal4-HIF1α(498-603) = biological target: B3; assay: co-immunoprecipitation with anti-Gal4, Western blot with anti-V5, 293 cells with Cbz-LLL
V5-tagged PHD2/HPH2 = biological target: T4, V5-tagged PHD2/HPH2 (human, UniProt Q9GZT9 1-426, limits assumed); assay: as above
T4 construct: V5/His-tagged expression plasmid; also called HIF prolyl-4-hydroxylase; not shown: V5/His tag
T4 sequence (Q9GZT9 whole entry): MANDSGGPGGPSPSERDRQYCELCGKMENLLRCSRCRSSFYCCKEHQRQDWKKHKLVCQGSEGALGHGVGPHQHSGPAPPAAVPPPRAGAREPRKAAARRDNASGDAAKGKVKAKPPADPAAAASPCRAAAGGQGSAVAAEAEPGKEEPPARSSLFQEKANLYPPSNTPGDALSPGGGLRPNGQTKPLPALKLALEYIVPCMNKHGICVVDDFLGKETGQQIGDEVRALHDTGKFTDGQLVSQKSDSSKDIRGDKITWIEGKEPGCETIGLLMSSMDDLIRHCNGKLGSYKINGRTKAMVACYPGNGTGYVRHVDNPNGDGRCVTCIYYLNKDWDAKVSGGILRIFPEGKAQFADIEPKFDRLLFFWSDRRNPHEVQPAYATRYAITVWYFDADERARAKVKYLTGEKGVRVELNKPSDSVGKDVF

T2 sequence (P40337 whole entry, the tested form may be a part): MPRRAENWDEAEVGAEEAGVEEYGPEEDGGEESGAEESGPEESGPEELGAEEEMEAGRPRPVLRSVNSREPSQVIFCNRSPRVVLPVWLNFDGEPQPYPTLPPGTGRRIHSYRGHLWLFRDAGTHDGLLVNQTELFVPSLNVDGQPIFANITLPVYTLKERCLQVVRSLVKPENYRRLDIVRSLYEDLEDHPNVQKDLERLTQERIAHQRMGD
T1 sequence (P40337 whole entry, the tested form may be a part): as above
T3 sequence (Q96KS0 whole entry, the tested form may be a part): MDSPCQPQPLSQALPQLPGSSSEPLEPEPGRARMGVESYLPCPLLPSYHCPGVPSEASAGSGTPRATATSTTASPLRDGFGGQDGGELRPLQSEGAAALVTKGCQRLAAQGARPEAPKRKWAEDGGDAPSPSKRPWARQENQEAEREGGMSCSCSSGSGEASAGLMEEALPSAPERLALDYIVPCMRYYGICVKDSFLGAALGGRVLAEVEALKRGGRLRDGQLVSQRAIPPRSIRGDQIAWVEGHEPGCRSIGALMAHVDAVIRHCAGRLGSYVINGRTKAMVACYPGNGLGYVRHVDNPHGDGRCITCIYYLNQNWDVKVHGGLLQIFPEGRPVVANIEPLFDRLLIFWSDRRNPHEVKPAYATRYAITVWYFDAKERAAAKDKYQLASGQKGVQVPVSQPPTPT

B1: Gal4-HIF1α(498-574) (other)
chain: MKLLSSIEQACDICRLKKLKCSKEKPKCAKCLKNNWECRYSPKTKRSPLTRAHLTEVESRLERLEQLFLLIFPREDLDMILKMDSLQDIKALLTGLFVQDNVNKDAVTDRLASVETDMPLTLRQHRISATSSSEESSNKGQRQLTVSTPSPSDGSTRQSSPEPNSPSEYCFYVDSDMVNEFKLELVEKLFAEDTEAKNPFSTQDTDLDLEMLAPYIPMDDDFQL
In the case of B1, the “Gal4 luciferase reporter activity (Hep3B cells), in comparison to Gal4-HIF1α(498-573)” value [1] is reported as 6.5 fold decrease and the “protein levels under normoxia (Western blot, 293 cells), in comparison to Gal4-HIF1α(498-573)” value [1] is reported as ~3 fold decrease.

B2: Gal4-HIF1α(401-603) with Pro-564 mutated to alanine (other, not shown: large carriers; small tags and cut ends)
chain: APAAGDTIISLDFGSNDTETDDQQLEEVPLYNDVMLPSPNEKLQNINLAMSPLPTAETPKPLRSSADPALNQEVALKLEPNPESLELSFTMPQIQDQTPSPSDGSTRQSSPEPNSPSEYCFYVDSDMVNEFKLELVEKLFAEDTEAKNPFSTQDTDLDLEMLAAYIPMDDDFQLRSFDQLSPLESSSASPESASPQSTVTVFQ
B2: no binding [2].

B3: no binding (V5-tagged PHD1/HPH3).

B4: Gal4-HIF1α(498-574)L574S (other, not shown: large carriers; small tags and cut ends)
chain: TPSPSDGSTRQSSPEPNSPSEYCFYVDSDMVNEFKLELVEKLFAEDTEAKNPFSTQDTDLDLEMLAPYIPMDDDFQS
B4: no binding [2].

B5: Gal4-HIF1α(530-573) (other)
chain: MKLLSSIEQACDICRLKKLKCSKEKPKCAKCLKNNWECRYSPKTKRSPLTRAHLTEVESRLERLEQLFLLIFPREDLDMILKMDSLQDIKALLTGLFVQDNVNKDAVTDRLASVETDMPLTLRQHRISATSSSEESSNKGQRQLTVSEFKLELVEKLFAEDTEAKNPFSTQDTDLDLEMLAPYIPMDDDFQ
B5: no binding [3]; no binding [2].

B6: V5-tagged PHD3/HPH1 (enzyme, human, UniProt Q9H6Z9 1-239, looked up)
chain: MPLGHIMRLDLEKIALEYIVPCLHEVGFCYLDNFLGEVVGDCVLERVKQLHCTGALRDGQLAGPRAGVSKRHLRGDQITWIGGNEEGCEAISFLLSLIDRLVLYCGSRLGKYYVKERSKAMVACYPGNGTGYVRHVDNPNGDGRCITCIYYLNKNWDAKLHGGILRIFPEGKSFIADVEPIFDRLLFFWSDRRNPHEVQPSYATRYAMTVWYFDAEERAEAKKKFRNLTRKTESALTED
notes: V5/His-tagged expression plasmid; not shown: V5/His tag
B6: no binding (Gal4-HIF1α(498-603)).

B7: Gal4-HIF1α(498-603)L574S (other, not shown: large carriers; small tags and cut ends)
chain: TPSPSDGSTRQSSPEPNSPSEYCFYVDSDMVNEFKLELVEKLFAEDTEAKNPFSTQDTDLDLEMLAPYIPMDDDFQSRSFDQLSPLESSSASPESASPQSTVTVFQ
notes: also called Gal4-C-ODD L574S mutant
B7 was tested, and the binding result [2] was “no binding”, the “Gal4 luciferase reporter activity (Hep3B cells) under oxygenated conditions, in comparison to the wild-type” value [1] was 4.3 fold increase and the “expression level (Western blot, 293 cells), in comparison to Gal4-HIF1α(498-603)” value [1] was 7 fold increase. B7: no binding (V5-tagged PHD2/HPH2).

B8: Gal4-HIF1α(574-603) (other)
chain: MKLLSSIEQACDICRLKKLKCSKEKPKCAKCLKNNWECRYSPKTKRSPLTRAHLTEVESRLERLEQLFLLIFPREDLDMILKMDSLQDIKALLTGLFVQDNVNKDAVTDRLASVETDMPLTLRQHRISATSSSEESSNKGQRQLTVSLRSFDQLSPLESSSASPESASPQSTVTVFQ
B8: no binding [2].
